Source: the DeepSol protein solubility set

Test: soluble on expression in E. coli; label from the status in PepcDB or PDB records

MINIHRFVQNRFLRTRHAHPFGIVLDIDGVLFRGRNMLPRVKEAFSLITDKKGNFVVPTVFLTNGTNSTEKNKAAQLSEQLGFRVPADNVLMSHSPLRMFTDLHDKQVLVVGQKNARAIAKGIIFFRVGFKKVTTIDHLVKWFPHLDCTDFSRKLVDPKETEAARKRFRPIEAIVMLGEPLKWETSLQLMLDCVLTYGKMDTMVFPLIAGGRRPDHIPIVACNVDLVWMADVASQLPRIGHGTFIHILDSLYEKLTGQHLQFRATLGKPTEVSYLHAAHRIQRQAKAMKLEDVKYVYVIGDNPMSDVLGARLFDRYLRHGGVGRFDHLDLEAFDVNDGEKPRVRTRNVVERCISILVETGVHQDHVHINGMVKPISALIDNLSKGEQLKLQLPDFVEYDLHAAIRTILRRECYR
soluble on expression in E. coli: not soluble

MASTNTNLQKAIDLASKAAQEDKAGNYEEALQLYQHAVQYFLHVVKYEAQGDKAKQSIRAKCTEYLDRAEKLKEYLKKKEKKPQKPVKEEQSGPVDEKGNDSDGEAESDDPEKKKLQNQLQGAIVIERPNVKWSDVAGLEGAKEALKEAVILPIKFPHLFTGKRTPWRGILLFGPPGTGKSYLAKAVATEANNSTFFSISSSDLVSKWLGESEKLVKNLFQLARENKPSIIFIDEIDSLCGSRSENESEAARRIKTEFLVQMQGVGVDNDGILVLGATNIPWVLDSAIRRRFEKRIYIPLPEAHARAAMFRLHLGSTQNSLTEADFQELGRKTDGYSGADISIIVRDALMQPVRKVQSATHFKKVRGPSRADPNCIVNDLLTPCSPGDPGAIEMTWMDVPGDKLLEPVVSMWDMLRSLSSTKPTVNEQDLLKLKKFTEDFGQEG
soluble on expression in E. coli: soluble

GMGQQESTLGGAAGEPRSRGHAAGTSGGPGDHLHATPGMFVQHSTAIFSDRYKGQRVLGKGSFGEVILCKDKITGQECAVKVISKRQVKQKTDKESLLREVQLLKQLDHPNIMKLYEFFEDKGYFYLVGEVYTGGELFDEIISRKRFSEVDAARIIRQVLSGITYMHKNKIVHRDLKPENLLLESKSKDANIRIIDFGLSTHFEASKKMKDKIGTAYYIAPEVLHGTYDEKCDVWSTGVILYILLSGCPPFNGANEYDILKKVEKGKYTFELPQWKKVSESAKDLIRKMLTYVPSMRISARDALDHEWIQTYTKEQISVDVPSLDNAILNIRQFQGTQKLAQAALLYMGSKLTSQDETKELTAIFHKMDKNGDGQLDRAELIEGYKELMRMKGQDASMLDASAVEHEVDQVLDAVDFDKNGYIEYSEFVTVAMDRKTLLSRERLERAFRMFDSDNSGKISSTELATIFGVSDVDSETWKSVLSEVDKNNDGEVDFDEFQQMLLKLCGN
soluble on expression in E. coli: soluble

MNNSINHKFHHISRAEYQELLAVSRGDAVADYIIDNVSILDLINGGEISGPIVIKGRYIAGVGAEYTDAPALQRIDAHGATAVPGFIDAHLHIESSMMTPVTFETATLPRGLTTVICDPHEIVNVMGEAGFAWFARCAEQARQNQYLQVSSCVPALEGCDVNGASFTLEQMLAWRDHPQVTGLAEMMDYPGVISGQNALLDKLDAFRHLTLDGHCPGLGGKELNAYIAAGIENCHESYQLEEGRRKLQLGMSLMIREGSAARNLNALAPLINEFNSPQCMLCTDDRNPWEIAHEGHIDALIRRLIEQHNVPLHVAYRVASWSTARHFGLNHLGLLAPGKQADIVLLSDARKVTVQQVLVKGEPIDAQTLQAEESAKLAQSAPPYGNTIARQPVSASDFALQFTPGKRYRVIDVIHNELITHSHSSVYSENGFERNDVCFIAVLERYGQRLAPACGLLGGFGLNEGALAATVSHDSHNIVVIGRSAEEMALAVNQVIQDGGGLCVVRNGQVQSHLPLPIAGLMSTDTAQSLAEQIDALKAAARECGPLPDEPFIQMAFLSLPVIPALKLTSQGLFDGEKFAFTTLEVTE
soluble on expression in E. coli: not soluble

MLEILYQDEWLVAVNKPSGWLVHRSWLDRDEKVVVMQTVRDQIGQHVFTAHRLDRPTSGVLLMGLSSEAGRLLAQQFEQHQIQKRYHAIVRGWLMEEAVLDYPLVEELDKIADKFAREDKGPQPAVTHYRGLATVEMPVATGRYPTTRYGLVELEPKTGRKHQLRRHLAHLRHPIIGDSKHGDLRQNRSGAEHFGLQRLMLHASQLSLTHPFTGEPLTIHAGLDDTWMQALSQFGWRGLLPENERVEFSAPSGQDGEISSLEHHHHHH
soluble on expression in E. coli: not soluble

GPGSMPALKPLLVFGLRGTLVERIHVRHVPEGMPAADFTVGLVKVWLRPHMVEVLNELQEHCRLAIWSSTTARNTHPLVNAVFGSNMTLQAGAGATTAAPARQEAASASAVVAASASNGRSGRFGTKRRPTKAEAADEESASEAAINAPKPQRVHFEFVWTREHTRVDDFRRLNAAVNDDSHATVKDLSQVFAQFPSIAQPQNTVLIDDTPSKAKMQADNYLWLDTCSNLRIKDETSLYRLRDFVMRELVPAEDVRELLPRRIRM
soluble on expression in E. coli: soluble
